# Assay results: patent US20180298070A1, “PEPTIDE COMPOUND” (Takeda Pharmaceutical Company Limited, published 2018)
# Non-standard residues stand in square brackets, D forms with d. Groups on a side chain read outwards from the residue. Primed or numbered codes have the meaning given here. No end group written: not given here. *: point of attachment. NMeY = CN[C@@H](Cc1ccc(O)cc1)C(=O)O; Stearoyl = CCCCCCCCCCCCCCCCCC(=O)*; Tridecanoyl = CCCCCCCCCCCCC(=O)*; Lauroyl = CCCCCCCCCCCC(=O)*; PEG2′ = not defined here; Dda = not defined here; Hexanoyl = CCCCCC(=O)*; Aib = CC(C)(N)C(=O)O
# Target: T1, human GLP-1R (human), P43220
# T1 chain: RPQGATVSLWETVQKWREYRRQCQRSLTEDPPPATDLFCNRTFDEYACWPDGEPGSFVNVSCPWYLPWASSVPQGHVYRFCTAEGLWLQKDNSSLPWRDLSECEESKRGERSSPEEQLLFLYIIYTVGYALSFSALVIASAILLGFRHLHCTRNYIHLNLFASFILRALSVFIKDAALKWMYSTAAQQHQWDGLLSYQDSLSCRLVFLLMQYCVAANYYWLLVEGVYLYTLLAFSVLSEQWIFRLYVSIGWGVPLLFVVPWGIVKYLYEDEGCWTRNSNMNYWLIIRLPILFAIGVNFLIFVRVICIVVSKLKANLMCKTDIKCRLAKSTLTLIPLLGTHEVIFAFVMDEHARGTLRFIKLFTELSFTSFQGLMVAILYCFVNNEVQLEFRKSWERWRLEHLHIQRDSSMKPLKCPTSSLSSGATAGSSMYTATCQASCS
# Assay: not given
row,Binder,"Agonist activity (EC50, M) [M]"
1,Y[Aib]EGTFISDYSK([PEG2′-Dda])ALDRIAQQDFVNWLLAQRPSSGAPPPSR (ends and bridges not checked) [Compound 188],2e-07
2,Y[Aib]EGTVVSLYSI[Aib]LDKQAQ[Aib]EFVKWLLKGK(Pal) (ends and bridges not checked) [Compound 163],> 1e-06
3,Y[Aib]EGTFISDYSK([PEG2′-Tridecanoyl])ALDRIAQQDFVNWLLAQRPSSGAPPPSR (ends and bridges not checked) [Compound 185],2.6e-08
4,Y[Aib]EGTFISDYSK([PEG(2)-Lauroyl])ALDRIAQQDFVNWLLAQRPSSGAPPPS (ends and bridges not checked) [Compound 191],5e-08
5,"[NMeY][Aib]EGTFISDYSIALDR[Aib]AQQSFVNWLLAQRPSSGAPPPSR (not fully specified (N-terminus, C-terminus); ends and bridges not checked) [Compound 137]",> 1e-06
6,Y[Aib]EGTFISDYSK([PEG2′-Hexanoyl])ALDRIHQQDFVNWLLAQRPSSGAPPPSR (ends and bridges not checked) [Compound 179],> 1e-06
7,Y[Aib]EGTVVSLYSK(Pal)[Aib]LDKQAQ[Aib]EFVKWLLAQK (ends and bridges not checked) [Compound 159],> 1e-06
8,Y[Aib]EGTFISDYSK([PEG(2)-Ac])ALDRIHQQDFVNWLLAQRPSSGAPPPSR (ends and bridges not checked) [Compound 178],> 1e-06
9,Y[Aib]EGTFISDYSK([PEG(2)-Lauroyl])ALDRIAQQSFVNWLLAQRPSSGAPPPS (ends and bridges not checked) [Compound 203],> 1e-06
10,Y[Aib]EGTVVSLYSI[Aib]LDKQAQ[Aib]EFVKWLLAQKK([PEG(2)-Pal]) (ends and bridges not checked) [Compound 160],> 1e-06
11,Y[Aib]EGTFISDYSK([PEG(2)-Lauroyl])ALDRIAQQSFVNWLLAQRPSSGAPPPSR (ends and bridges not checked) [Compound 196],4.4e-08
12,Y[Aib]EGTFISDYSK([PEG(2)-Stearoyl])ALDRIHQQDFVNWLLAQRPSSGAPPPS (ends and bridges not checked) [Compound 176],> 1e-06

# Target: T2, human GIPR (human), P48546
# T2 chain: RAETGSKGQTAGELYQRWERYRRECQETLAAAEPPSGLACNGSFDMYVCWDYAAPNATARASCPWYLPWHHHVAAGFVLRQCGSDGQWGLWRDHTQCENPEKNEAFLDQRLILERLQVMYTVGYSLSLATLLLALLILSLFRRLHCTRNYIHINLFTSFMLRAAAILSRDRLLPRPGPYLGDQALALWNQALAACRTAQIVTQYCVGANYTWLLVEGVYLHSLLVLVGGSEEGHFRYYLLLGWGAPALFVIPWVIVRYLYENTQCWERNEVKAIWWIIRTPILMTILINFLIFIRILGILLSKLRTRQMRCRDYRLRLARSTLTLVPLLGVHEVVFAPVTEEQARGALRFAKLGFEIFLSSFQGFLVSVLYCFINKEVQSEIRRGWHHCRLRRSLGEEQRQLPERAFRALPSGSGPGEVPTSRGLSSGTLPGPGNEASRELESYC
# Assay: not given
row,Binder,"Agonist activity (EC50, M) [M]"
1,Y[Aib]EGTFISDYSK([PEG2′-Dda])ALDRIAQQDFVNWLLAQRPSSGAPPPSR (ends and bridges not checked) [Compound 188],3e-12
2,Y[Aib]EGTVVSLYSI[Aib]LDKQAQ[Aib]EFVKWLLKGK(Pal) (ends and bridges not checked) [Compound 163],6.6e-09
3,Y[Aib]EGTFISDYSK([PEG2′-Tridecanoyl])ALDRIAQQDFVNWLLAQRPSSGAPPPSR (ends and bridges not checked) [Compound 185],7e-12
4,Y[Aib]EGTFISDYSK([PEG(2)-Lauroyl])ALDRIAQQDFVNWLLAQRPSSGAPPPS (ends and bridges not checked) [Compound 191],4.1e-12
5,"[NMeY][Aib]EGTFISDYSIALDR[Aib]AQQSFVNWLLAQRPSSGAPPPSR (not fully specified (N-terminus, C-terminus); ends and bridges not checked) [Compound 137]",1.7e-12
6,Y[Aib]EGTFISDYSK([PEG2′-Hexanoyl])ALDRIHQQDFVNWLLAQRPSSGAPPPSR (ends and bridges not checked) [Compound 179],3e-12
7,Y[Aib]EGTVVSLYSK(Pal)[Aib]LDKQAQ[Aib]EFVKWLLAQK (ends and bridges not checked) [Compound 159],7.8e-10
8,Y[Aib]EGTFISDYSK([PEG(2)-Ac])ALDRIHQQDFVNWLLAQRPSSGAPPPSR (ends and bridges not checked) [Compound 178],4.2e-12
9,Y[Aib]EGTFISDYSK([PEG(2)-Lauroyl])ALDRIAQQSFVNWLLAQRPSSGAPPPS (ends and bridges not checked) [Compound 203],4.3e-12
10,Y[Aib]EGTVVSLYSI[Aib]LDKQAQ[Aib]EFVKWLLAQKK([PEG(2)-Pal]) (ends and bridges not checked) [Compound 160],9.5e-11
11,Y[Aib]EGTFISDYSK([PEG(2)-Lauroyl])ALDRIAQQSFVNWLLAQRPSSGAPPPSR (ends and bridges not checked) [Compound 196],6.3e-12
12,Y[Aib]EGTFISDYSK([PEG(2)-Stearoyl])ALDRIHQQDFVNWLLAQRPSSGAPPPS (ends and bridges not checked) [Compound 176],1.9e-11

# Target: T2, human GIPR (human), P48546
# Assay: [125I]GIP displacement, hGIPR VLP
row,Binder,IC50 [nM]
1,Y[Aib]EGTFISDYSK([PEG2′-Dda])ALDRIAQQDFVNWLLAQRPSSGAPPPSR (ends and bridges not checked) [Compound 188],2.7
2,Y[Aib]EGTVVSLYSI[Aib]LDKQAQ[Aib]EFVKWLLKGK(Pal) (ends and bridges not checked) [Compound 163],50
3,Y[Aib]EGTFISDYSK([PEG2′-Tridecanoyl])ALDRIAQQDFVNWLLAQRPSSGAPPPSR (ends and bridges not checked) [Compound 185],19
4,Y[Aib]EGTFISDYSK([PEG(2)-Lauroyl])ALDRIAQQDFVNWLLAQRPSSGAPPPS (ends and bridges not checked) [Compound 191],2.7
5,"[NMeY][Aib]EGTFISDYSIALDR[Aib]AQQSFVNWLLAQRPSSGAPPPSR (not fully specified (N-terminus, C-terminus); ends and bridges not checked) [Compound 137]",0.98
6,Y[Aib]EGTFISDYSK([PEG2′-Hexanoyl])ALDRIHQQDFVNWLLAQRPSSGAPPPSR (ends and bridges not checked) [Compound 179],2.1
7,Y[Aib]EGTVVSLYSK(Pal)[Aib]LDKQAQ[Aib]EFVKWLLAQK (ends and bridges not checked) [Compound 159],8.1
8,Y[Aib]EGTFISDYSK([PEG(2)-Ac])ALDRIHQQDFVNWLLAQRPSSGAPPPSR (ends and bridges not checked) [Compound 178],3
9,Y[Aib]EGTFISDYSK([PEG(2)-Lauroyl])ALDRIAQQSFVNWLLAQRPSSGAPPPS (ends and bridges not checked) [Compound 203],2.1
10,Y[Aib]EGTVVSLYSI[Aib]LDKQAQ[Aib]EFVKWLLAQKK([PEG(2)-Pal]) (ends and bridges not checked) [Compound 160],4.1
11,Y[Aib]EGTFISDYSK([PEG(2)-Lauroyl])ALDRIAQQSFVNWLLAQRPSSGAPPPSR (ends and bridges not checked) [Compound 196],2.4
12,Y[Aib]EGTFISDYSK([PEG(2)-Stearoyl])ALDRIHQQDFVNWLLAQRPSSGAPPPS (ends and bridges not checked) [Compound 176],3.4
